Measurements: patent US20160367497A1, “METHODS AND COMPOSITIONS FOR TREATING NEUROPATHIES” (Washington University, priority 2007, published 2016)

B1: NmPRT: nicotinamide phosphoribosyltransferase (protein, UniProt P43490 1-491, looked up)
Nicotinamide …: MNPAAEAEFNILLATDSYKVTHYKQYPPNTSKVYSYFECREKKTENSKLRKVKYEETVFYGLQYILNKYLKGKVVTKEKIQEAKDVYKEHFQDDVFNEKGWNYILEKYDGHLPIEIKAVPEGFVIPRGNVLFTVENTDPECYWLTNWIETILVQSWYPITVATNSREQKKILAKYLLETSGNLDGLEYKLHDFGYRGVSSQETAGIGASAHLVNFKGTDTVAGLALIKKYYGTKDPVPGYSVPAAEHSTITAWGKDHEKDAFEHIVTQFSSVPVSVVSDSYDIYNACEKIWGEDLRHLIVSRSTQAPLIIRPDSGNPLDTVLKVLEILGKKFPVTENSKGYKLLPPYLRVIQGDGVDINTLQEIVEGMKQKMWSIENIAFGSGGGLLQKLTRDLLNCSFKCSYVVTNGLGINVFKDPVADPNKRSKKGRLSLHRTPAGNFVTLEEGKGDLEEYGQDLLHTVFKNGKVTKSYSFDEIRKNAQLNIELEAAHH
B2: NMNAT1: nicotinamide mononucleotide adenylyltransferase1, lentivirus expressed (protein, UniProt Q9EPA7 1-285, looked up)
Nicotinamide/nicotinic acid …: MDSSKKTEVVLLACGSFNPITNMHLRLFELAKDYMHATGKYSVIKGIISPVGDAYKKKGLIPAHHRIIMAELATKNSHWVEVDTWESLQKEWVETVKVLRYHQEKLATGSCSYPQSSPALEKPGRKRKWADQKQDSSPQKPQEPKPTGVPKVKLLCGADLLESFSVPNLWKMEDITQIVANFGLICITRAGSDAQKFIYESDVLWRHQSNIHLVNEWITNDISSTKIRRALRRGQSIRYLVPDLVQEYIEKHELYNTESEGRNAGVTLAPLQRNAAEAKHNHSTL

Tests used:
[1] = tested on: DRG neuronal explant cultures; assay: in vitro Wallerian degeneration assay, DRG explant neurite transection; assay type: cell-based, mouse; conditions: lentivirus-mediated expression in DRG neurons
Method: (§1) To identify the mechanism of delayed axonal degeneration mediated by the Wlds protein, we employed an in-vitro Wallerian degeneration model. Primary DRG explant neurons were infected with lentivirus expressing the appropriate proteins, and axons were injured by either removal of the neuronal cell body (transection) or growth in vincristine (toxic).
Mouse DRG explants from E12.5 embryos were cultured in the presence of 1 nM nerve growth factor. Non-neuronal cells were removed from the cultures by adding 5-fluorouracil to the culture medium. Transection of neurites was performed at 10-20 DIV using an 18-gauge needle to remove the neuronal cell bodies. […]
Quantitative analysis of axonal degeneration was performed as previously described (Zhai, et al., Neuron 39:217-25, 2003). […] Axons with a fragmented, non-refractile appearance were designated as “degenerated.” At each time point, at least 200 singly distinguishable axons were blindly scored from several randomly taken images of each culture. […] For calculations of neurite-covered area, digitally captured images from quadruplicate samples of two independent experiments were analyzed using analysis 3.1 software (Soft Imaging System, Lakewood, Colo.).
Cell culture, in vitro axotomy, and quantification of axonal degeneration. […] Quantitative analysis of neurite degeneration was performed.

DRG neuronal explant = assay: vincristine-induced axonal degeneration in DRG neuronal explants; assay type: cell-based, mouse; conditions: 0.5 μM vincristine for up to 9 d; lentiviral expression
Method: as §1
Quantitative analysis of axonal degeneration was performed as previously described (Zhai, et al., Neuron 39:217-25, 2003). Briefly, the cultures were examined using phase contrast microscopy at the indicated times. Axons with a fragmented, non-refractile appearance were designated as “degenerated.” At each time point, at least 200 singly distinguishable axons were blindly scored from several randomly taken images of each culture. Each condition was tested in triplicate explants in each experiment. Results were obtained from 2-4 independent experiments for each condition. Statistical analysis was performed by Student's T test. For calculations of neurite-covered area, digitally captured images from quadruplicate samples of two independent experiments were analyzed using analysis 3.1 software (Soft Imaging System, Lakewood, Colo.). […]

| Molecule | axonal/neurite degeneration after transection [1] | axon length and refractility (DRG neuronal explant) |
| --- | --- | --- |
| B1 | shows axonal protection |  |
| B2 |  | maintained their original length and refractility |
